Results on 22 molecules are retold here after US20200165344A1 (DRAGONFLY THERAPEUTICS, published 2020).

Experiment [1] has as its target T1, recombinant human NKG2D-Fc (human, UniProt P26718 73-216).
T1 construct: extracellular domain; also called human NKG2D-Fc fusion protein; NKG2D-Fc-biotin; not shown: human IgG1 Fc domain
T1 sequence (looked up): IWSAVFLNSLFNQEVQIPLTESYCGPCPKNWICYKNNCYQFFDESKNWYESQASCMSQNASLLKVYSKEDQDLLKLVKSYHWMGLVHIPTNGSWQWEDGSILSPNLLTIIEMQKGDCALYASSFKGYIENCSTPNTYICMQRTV
Put plainly: ELISA, NKG2D-Fc coated.

Experiment [2] concerns the target T2, recombinant cynomolgus NKG2D-Fc (cynomolgus; human, UniProt P61252 73-216).
T2 construct: extracellular domain; also called cynomolgus NKG2D-Fc fusion protein; not shown: human IgG1 Fc domain
T2 sequence (looked up): T1 sequence (looked up) with D43N, T133I
As to the kind of experiment: ELISA, NKG2D-Fc coated. On the technique in general: An ELISA detects its analyte on a solid surface through an enzyme-linked reagent.

In experiment [3] the target is T3, recombinant mouse NKG2D-Fc (mouse; human, UniProt O54709 90-232).
T3 construct: extracellular domain; also called mouse NKG2D-Fc fusion protein; Mouse NKG2D-Fc-biotin; not shown: human IgG1 Fc domain
T3 sequence (looked up): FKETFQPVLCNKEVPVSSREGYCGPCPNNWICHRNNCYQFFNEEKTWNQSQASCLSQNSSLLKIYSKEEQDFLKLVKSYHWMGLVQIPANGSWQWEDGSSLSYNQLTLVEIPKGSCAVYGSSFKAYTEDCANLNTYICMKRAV
Put plainly: ELISA, NKG2D-Fc coated.

For experiment [4], the target named is T4, FLT3 expressed on human AML cell lines Molm-13 and EOL-1 (human, UniProt P36888 27-993).
T4 construct: the FLT3 in the assay is that carried by the cell lines themselves; also called FMS-like tyrosine kinase-3
As to the kind of experiment: flow cytometry on Molm-13 and EOL-1 cells. A general note: A flow cytometer gives signals particle by particle.
Procedure: Human AML cell lines (Molm-13 and EOL-1) expressing FLT3 were used to assay the binding of FLT3-targeting TriNKETs to the tumor-associated antigen. TriNKETs were incubated with the cells, and the binding was detected using fluorophore-conjugated anti-human IgG secondary antibodies. Cells were analyzed by flow cytometry and mean fluorescence intensity (MFI) was normalized to secondary antibody controls to obtain fold over background (FOB) values.

Numbering of substitutions follows the chain as printed.

B1: ADI-29378 (antibody, V domains shown)
VH: QVQLVQSGAEVKKPGASVKVSCKASGYTFTSYYMHWVRQAPGQGLEWMGIINPSGGSTSYAQKFQGRVTMTRDTSTSTVYMELSSLRSEDTAVYYCAREGAGFAYGMDYYYMDVWGKGTTVTVSS
VL: EIVLTQSPATLSLSPGERATLSCRASQSVSSYLAWYQQKPGQAPRLLIYDASNRATGIPARFSGSGSGTDFTLTISSLEPEDFAVYYCQQSDNWPFTFGGGTKVEIK
notes: also called E78
Turning to B1, the binding result in experiment [1], in experiment [2] and in experiment [3] was “binds” each time.

B2: A49-TriNKET-FLT3-IMCEB10 (bispecific antibody, V domains shown)
VH 1: EVQLVESGGGLVKPGGSLRLSCAASGFTFSSYSMNWVRQAPGKGLEWVSSISSSSSYIYYADSVKGRFTISRDNAKNSLYLQMNSLRAEDTAVYYCARGAPMGAAAGWFDPWGQGTLVTVSS
VL 1: DIQMTQSPSSVSASVGDRVTITCRASQGISSWLAWYQQKPGKAPKLLIYAASSLQSGVPSRFSGSGSGTDFTLTISSLQPEDFATYYCQQGVSFPRTFGGGTKVEIK
VH 2: EVQLVQSGAEVKKPGASVKVSCKASGYTFTSYYMHWVRQAPGQGLEWMGIINPSGGSTSYAQKFQGRVTMTRDTSTSTVYMELSSLRSEDTAVYYCARGVGAHDAFDIWGQGTTVTVSSA
VL 2: DVVMTQSPLSLPVTPGEPASISCRSSQSLLHSNGNNYLDWYLQKPGQSPQLLIYLGSNRASGVPDRFSGSGSDTDFTLQISRVEAEDVGVYYCMQGTHPAISFGQGTRLEIKR
notes: also called A49-TriNKET-IMCEB10
Turning to B2, the binding result in experiment [4] is “binds”.

B3: ADI-27749 (antibody, V domains shown)
VH: B2 VH 1
VL: B2 VL 1
notes: also called A49
As to B3, the binding result in experiment [1], in experiment [2] and in experiment [3] was “binds” throughout.

B4: ADI-27705 (antibody, V domains shown)
VH: QVQLQQWGAGLLKPSETLSLTCAVYGGSFSGYYWSWIRQPPGKGLEWIGEIDHSGSTNYNPSLKSRVTISVDTSKNQFSLKLSSVTAADTAVYYCARARGPWSFDPWGQGTLVTVSS
VL: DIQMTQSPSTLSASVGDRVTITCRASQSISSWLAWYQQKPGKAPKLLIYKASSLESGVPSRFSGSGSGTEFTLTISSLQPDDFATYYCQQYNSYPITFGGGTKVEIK
For the molecule B4, the binding result in experiment [1], in experiment [2] and in experiment [3] was “binds” throughout.

B5: ADI-29403 (antibody, V domains shown)
VH: B4 VH
VL: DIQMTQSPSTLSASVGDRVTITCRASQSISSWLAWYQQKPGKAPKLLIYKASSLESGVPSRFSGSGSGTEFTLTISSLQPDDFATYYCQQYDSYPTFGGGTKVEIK
Regarding B5, the binding result in experiment [1], in experiment [2] and in experiment [3] was “binds” in each case.

B6: ADI-29429 (antibody, V domains shown)
VH: B4 VH
VL: DIQMTQSPSTLSASVGDRVTITCRASQSIGSWLAWYQQKPGKAPKLLIYKASSLESGVPSRFSGSGSGTEFTLTISSLQPDDFATYYCQQYELYSYTFGGGTKVEIK
B6: the binding result in experiment [1], in experiment [2] and in experiment [3] was “binds” in each case.

B7: ADI-29419 (antibody, V domains shown)
VH: B4 VH
VL: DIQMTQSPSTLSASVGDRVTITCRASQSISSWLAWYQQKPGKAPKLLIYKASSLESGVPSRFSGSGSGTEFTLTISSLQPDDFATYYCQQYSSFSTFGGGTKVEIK
On to B7, for which the binding result in experiment [1], in experiment [2] and in experiment [3] was “binds” each time.

B8: ADI-29401 (antibody, V domains shown)
VH: B4 VH
VL: DIQMTQSPSTLSASVGDRVTITCRASQSIGSWLAWYQQKPGKAPKLLIYKASSLESGVPSRFSGSGSGTEFTLTISSLQPDDFATYYCQQYDIYPTFGGGTKVEIK
As to B8, the binding result in experiment [1], in experiment [2] and in experiment [3] was “binds” in each case.

B9: ADI-27743 (antibody, V domains shown)
VH: B4 VH
VL: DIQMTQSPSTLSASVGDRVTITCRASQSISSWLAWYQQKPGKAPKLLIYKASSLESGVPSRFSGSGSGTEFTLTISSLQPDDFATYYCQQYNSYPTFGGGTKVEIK
Take B9: the binding result in experiment [1], in experiment [2] and in experiment [3] was “binds” each time.

B10: ADI-27740 (antibody, V domains shown)
VH: B4 VH
VL: B8 VL with D92H, I93S, Y94F, P95Y
notes: also called A40
In the case of B10, the binding result in experiment [1], in experiment [2] and in experiment [3] was “binds” in each case.

B11: ADI-29447 (antibody, V domains shown)
VH: B4 VH
VL: B8 VL with G30S, I93T, Y94F, P95I
notes: also called F47
Consider B11, for which the binding result in experiment [1], in experiment [2] and in experiment [3] was “binds” throughout.

B12: ADI-29399 (antibody, V domains shown)
VH: B4 VH
VL: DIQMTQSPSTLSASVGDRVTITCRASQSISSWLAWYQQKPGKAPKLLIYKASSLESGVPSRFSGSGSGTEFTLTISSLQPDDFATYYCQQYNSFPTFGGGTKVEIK
For the molecule B12, the binding result in experiment [1], in experiment [2] and in experiment [3] was “binds” in each case.

B13: ADI-29404 (antibody, V domains shown)
VH: B4 VH
VL: B8 VL with G30S, Q89E, I93S
notes: also called F04
On to B13, for which the binding result in experiment [1], in experiment [2] and in experiment [3] was “binds” in each case.

B14: ADI-29424 (antibody, V domains shown)
VH: B4 VH
VL: B8 VL with G30S, I93S, Y94F, P95I
With B14, the binding result in experiment [1], in experiment [2] and in experiment [3] was “binds” throughout.

B15: ADI-27741 (antibody, V domains shown)
VH: B4 VH
VL: B8 VL with Y91S, D92N, I93S, P95Y
Turning to B15, the binding result in experiment [1], in experiment [2] and in experiment [3] was “binds” each time.

B16: ADI-29421 (antibody, V domains shown)
VH: B4 VH
VL: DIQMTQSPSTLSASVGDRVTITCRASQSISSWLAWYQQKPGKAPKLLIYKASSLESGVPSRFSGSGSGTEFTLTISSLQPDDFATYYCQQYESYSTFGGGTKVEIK
For B16, the binding result in experiment [1], in experiment [2] and in experiment [3] was “binds” in each case.

B17: ADI-29405 (antibody, V domains shown)
VH: B4 VH
VL: B8 VL with G30S, D92G, I93S, Y94F
As for B17, the binding result in experiment [1], in experiment [2] and in experiment [3] was “binds” in each case.

B18: ADI-28226 (antibody, V domains shown)
VH: B4 VH
VL: B6 VL with G30S, E92G, L93S, Y94F, S95P, Y96I
notes: also called C26
As to B18, the binding result in experiment [1], in experiment [2] and in experiment [3] was “binds” each time.

B19: ADI-29426 (antibody, V domains shown)
VH: B4 VH
VL: B8 VL with D92H, I93S, Y94F
Take B19: the binding result in experiment [1], in experiment [2] and in experiment [3] was “binds” in each case.

B20: ADI-29425 (antibody, V domains shown)
VH: B4 VH
VL: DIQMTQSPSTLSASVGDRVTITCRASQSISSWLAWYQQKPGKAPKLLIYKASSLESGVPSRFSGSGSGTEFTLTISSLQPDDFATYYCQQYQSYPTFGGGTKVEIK
As for B20, the binding result in experiment [1], in experiment [2] and in experiment [3] was “binds” in each case.

B21: ADI-29407 (antibody, V domains shown)
VH: B4 VH
VL: B8 VL with G30S, D92Q, I93S, Y94F
As to B21, the binding result in experiment [1], in experiment [2] and in experiment [3] was “binds” in each case.

B22: ADI-27727 (antibody, V domains shown)
VH: QVQLVQSGAEVKKPGSSVKVSCKASGGTFSSYAISWVRQAPGQGLEWMGGIIPIFGTANYAQKFQGRVTITADESTSTAYMELSSLRSEDTAVYYCARGDSSIRHAYYYYGMDVWGQGTTVTVSS
VL: not shown
As for B22, the binding result in experiment [1], in experiment [2] and in experiment [3] was “binds” each time.
